Sequences and labels used below:
B1: Tetratricopeptide repeat protein 4 (Homo sapiens), O95801 (parent)
chain: MEQPGQDPTSDDVMDSFLEKFQSQPYRGGFHEDQWEKEFEKVPLFMSRAPSEIDPRENPDLACLQSIIFDEERSPEEQAKTYKDEGNDYFKEKDYKKAVISYTEGLKKKCADPDLNAVLYTNRAAAQYYLGNFRSALNDVTAARKLKPCHLKAIIRGALCHLELKHFAEAVNWCDEGLQIDAKEKKLLEMRAKADKLKRIEQRDVRKANLKEKKERNQNEALLQAIKARNIRLSEAACEDEDSASEGLGELFLDGLSTENPHGARLSLDGQGRLSWPVLFLYPEYAQSDFISAFHEDSRFIDHLMVMFGETPSWDLEQKYCPDNLEVYFEDEDRAELYRVPAKSTLLQVLQHQRYFVKALTPAFLVCVGSSPFCKNFLRGRKVYQIR
partner: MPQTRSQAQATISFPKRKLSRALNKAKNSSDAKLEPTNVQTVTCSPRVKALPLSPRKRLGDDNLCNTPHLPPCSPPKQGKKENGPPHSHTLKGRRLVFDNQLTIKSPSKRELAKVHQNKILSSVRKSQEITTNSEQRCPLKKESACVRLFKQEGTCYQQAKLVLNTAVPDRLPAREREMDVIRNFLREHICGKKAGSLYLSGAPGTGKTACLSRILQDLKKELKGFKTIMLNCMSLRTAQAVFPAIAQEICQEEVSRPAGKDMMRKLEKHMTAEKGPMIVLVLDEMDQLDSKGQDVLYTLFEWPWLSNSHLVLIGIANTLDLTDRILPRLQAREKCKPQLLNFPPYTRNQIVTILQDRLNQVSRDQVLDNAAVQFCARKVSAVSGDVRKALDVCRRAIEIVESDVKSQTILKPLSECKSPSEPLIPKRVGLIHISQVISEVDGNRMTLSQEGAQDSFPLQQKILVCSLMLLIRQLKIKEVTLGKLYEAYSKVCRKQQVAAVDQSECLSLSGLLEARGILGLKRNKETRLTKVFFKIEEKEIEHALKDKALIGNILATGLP
B2: Tetratricopeptide repeat protein 4 (Homo sapiens), O95801 (parent)
chain: B1 chain

The first assay covers variants of B1. The settings on record: with cdc6_human CDC6, Q99741.
Turning to MEQPGQDPTSDDVMDSFLEKFQSQPYRGGFHEDQWEKEFEKVPLFMSRAPSEIDPRENPDLACLQSMIFDEERSPEEQAKTYKDEGNDYFKEKDYKKAVISYTEGLKKKCADPDLNAVLYTNRAAAQYYLGNFRSALNDVTAARKLKPCHLKAIIRGALCHLELKHFAEAVNWCDEGLQIDAKEKKLLEMRAKADKLKRIEQRDVRKANLKEKKERNQNEALLQAIKARNIRLSEAACEDEDSASEGLGELFLDGLSTENPHGARLSLDGQGRLSWPVLFLYPEYAQSDFISAFHEDSRFIDHLMVMFGETPSWDLEQKYCPDNLEVYFEDEDRAELYRVPAKSTLLQVLQHQRYFVKALTPAFLVCVGSSPFCKNFLRGRKVYQIR [I67M], the “effect of a mutation on the interaction” value is listed as “with no effect”.

In the case of MEQPGQDPTSDDVMDSFLEKFQSQPYRGGFHEDQWEKEFEKVPLFMSRAPSEIDPRENPDLACLQSIIFDEERSPEEQAKTYKDEGNDYFKEKDYKKAVISYTEGLKKKCADPDLNAVLYTNRAAAQYYLGNFRSALNDVTAARKLKPCHLKAIIRGALCHLELKHFAEAVNWCDEGLQIDAKEKKLLEMRAKADKLKRIEQRDVRKANLKEKKERKQNEALLQAIKARNIRLSEAACEDEDSASEGLGELFLDGLSTENPHGARLSLDGQGRLSWPVLFLYPEYAQSDFISAFHEDSRFIDHLMVMFGETPSWDLEQKYCPDNLEVYFEDEDRAELYRVPAKSTLLQVLQHQRYFVKALTPAFLVCVGSSPFCKNFLRGRKVYQIR [N217K], the “effect of a mutation on the interaction” value was “disrupting interaction strength”.

As for MEQPGQDPTSDDVMDSFLEKFQSQPYRGGFHEDQWEKEFEKDPLFMSRAPSEIDPRENPDLACLQSIIFDEERSPEEQAKTYKDEGNDYFKEKDYKKAVISYTEGLKKKCADPDLNAVLYTNRAAAQYYLGNFRSALNDVTAARKLKPCHLKAIIRGALCHLELKHFAEAVNWCDEGLQIDAKEKKLLEMRAKADKLKRIEQRDVRKANLKEKKERNQNEALLQAIKARNIRLSEAACEDEDSASEGLGELFLDGLSTENPHGARLSLDGQGRLSWPVLFLYPEYAQSDFISAFHEDSRFIDHLMVMFGETPSWDLEQKYCPDNLEVYFEDEDRAELYRVPAKSTLLQVLQHQRYFVKALTPAFLVCVGSSPFCKNFLRGRKVYQIR [V42D], the “effect of a mutation on the interaction” value is recorded as “with no effect”.

Turning to MEQPGQDPTSDDVMDSFLEKFQSQPYRGGFHEDQWEKEFEKVPLFMSRAPSEIDPRENPDLACLQSIIFDEERSPEAQAKTYKDEGNDYFKEKDYKKAVISYTEGLKKKCADPDLNAVLYTNRAAAQYYLGNFRSALNDVTAARKLKPCHLKAIIRGALCHLELKHFAEAVNWCDEGLQIDAKEKKLLEMRAKADKLKRIEQRDVRKANLKEKKERNQNEALLQAIKARNIRLSEAACEDEDSASEGLGELFLDGLSTENPHGARLSLDGQGRLSWPVLFLYPEYAQSDFISAFHEDSRFIDHLMVMFGETPSWDLEQKYCPDNLEVYFEDEDRAELYRVPAKSTLLQVLQHQRYFVKALTPAFLVCVGSSPFCKNFLRGRKVYQIR [E77A], the “effect of a mutation on the interaction” value is “disrupting interaction strength”.

In another assay the parent is B2. The settings on record: with hs90b_human HSP90AB1, P08238.
hs90b_human HSP90AB1, P08238, sequence (P08238 whole entry): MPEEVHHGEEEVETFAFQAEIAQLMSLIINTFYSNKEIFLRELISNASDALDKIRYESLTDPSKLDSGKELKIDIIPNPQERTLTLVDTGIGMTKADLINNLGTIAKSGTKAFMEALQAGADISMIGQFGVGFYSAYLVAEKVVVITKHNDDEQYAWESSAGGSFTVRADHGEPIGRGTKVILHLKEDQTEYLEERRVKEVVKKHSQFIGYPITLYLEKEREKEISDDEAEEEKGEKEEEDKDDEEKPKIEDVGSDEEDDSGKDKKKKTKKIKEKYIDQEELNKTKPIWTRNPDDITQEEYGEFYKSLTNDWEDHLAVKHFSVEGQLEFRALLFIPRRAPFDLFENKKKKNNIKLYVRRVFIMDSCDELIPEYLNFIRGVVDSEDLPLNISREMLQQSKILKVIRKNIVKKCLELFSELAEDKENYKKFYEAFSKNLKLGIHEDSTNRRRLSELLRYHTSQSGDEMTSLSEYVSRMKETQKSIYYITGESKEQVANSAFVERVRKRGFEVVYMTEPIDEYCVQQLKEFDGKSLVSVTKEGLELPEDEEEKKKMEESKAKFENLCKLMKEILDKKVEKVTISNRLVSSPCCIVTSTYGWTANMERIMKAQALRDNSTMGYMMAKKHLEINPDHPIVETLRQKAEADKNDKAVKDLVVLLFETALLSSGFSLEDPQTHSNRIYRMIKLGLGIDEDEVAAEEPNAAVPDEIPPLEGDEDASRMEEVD
As for MEQPGQDPTSDDVMDSFLEKFQSQPYRGGFHEDQWEKEFEKVPLFMSRAPSEIDPRENPDLACLQSIIFDEERSPEEQAKTYKDEGNDYFKEKDYKKAVISYTEGLKKKCADPDLNAVLYTNRAAAQYYLGNFRSALNDVTAARKLKPCHLKAIIRGALCHLELKHFAEAVNWCDEGLQIDAKEKKLLEMRAKADKLKRIEQRDVRKANLKEKKERKQNEALLQAIKARNIRLSEAACEDEDSASEGLGELFLDGLSTENPHGARLSLDGQGRLSWPVLFLYPEYAQSDFISAFHEDSRFIDHLMVMFGETPSWDLEQKYCPDNLEVYFEDEDRAELYRVPAKSTLLQVLQHQRYFVKALTPAFLVCVGSSPFCKNFLRGRKVYQIR [N217K], the “effect of a mutation on the interaction” value is “decreasing interaction strength”.

As to MEQPGQDPTSDDVMDSFLEKFQSQPYRGGFHEDQWEKEFEKVPLFMSRAPSEIDPRENPDLACLQSMIFDEERSPEEQAKTYKDEGNDYFKEKDYKKAVISYTEGLKKKCADPDLNAVLYTNRAAAQYYLGNFRSALNDVTAARKLKPCHLKAIIRGALCHLELKHFAEAVNWCDEGLQIDAKEKKLLEMRAKADKLKRIEQRDVRKANLKEKKERNQNEALLQAIKARNIRLSEAACEDEDSASEGLGELFLDGLSTENPHGARLSLDGQGRLSWPVLFLYPEYAQSDFISAFHEDSRFIDHLMVMFGETPSWDLEQKYCPDNLEVYFEDEDRAELYRVPAKSTLLQVLQHQRYFVKALTPAFLVCVGSSPFCKNFLRGRKVYQIR [I67M], the “effect of a mutation on the interaction” value was “with no effect”.

In another assay the parent is B2. Particulars: with hsp7c_human HSPA8, P11142.
hsp7c_human HSPA8, P11142, sequence (P11142 whole entry, looked up): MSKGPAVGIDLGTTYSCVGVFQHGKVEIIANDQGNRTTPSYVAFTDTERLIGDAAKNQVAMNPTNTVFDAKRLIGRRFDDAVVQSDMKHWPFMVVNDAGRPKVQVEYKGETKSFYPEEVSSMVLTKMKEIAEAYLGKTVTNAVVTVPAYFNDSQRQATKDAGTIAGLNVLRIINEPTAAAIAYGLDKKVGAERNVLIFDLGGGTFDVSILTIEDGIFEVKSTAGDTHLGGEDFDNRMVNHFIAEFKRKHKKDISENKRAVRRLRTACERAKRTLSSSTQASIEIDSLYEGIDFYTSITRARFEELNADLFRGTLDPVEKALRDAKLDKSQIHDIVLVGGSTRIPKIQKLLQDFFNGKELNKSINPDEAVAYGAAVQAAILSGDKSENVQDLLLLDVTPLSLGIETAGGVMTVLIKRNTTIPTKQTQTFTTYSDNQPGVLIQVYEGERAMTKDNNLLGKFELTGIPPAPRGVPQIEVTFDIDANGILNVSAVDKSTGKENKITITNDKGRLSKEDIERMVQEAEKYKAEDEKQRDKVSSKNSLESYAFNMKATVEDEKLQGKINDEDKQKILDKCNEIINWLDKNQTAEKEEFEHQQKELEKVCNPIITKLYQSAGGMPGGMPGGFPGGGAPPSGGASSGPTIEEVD
For MEQPGQDPTSDDVMDSFLEKFQSQPYRGGFHEDQWEKEFEKVPLFMSRAPSEIDPRENPDLACLQSIIFDEERSPEEQAKTYKDEGNDYFKEKDYKKAVISYTEGLKKKCADPDLNAVLYTNRAAAQYYLGNFRSALNDVTAARKLKPCHLKAIIRGALCHLELKHFAEAVNWCDEGLQIDAKEKKLLEMRAKADKLKRIEQRDVRKANLKEKKERKQNEALLQAIKARNIRLSEAACEDEDSASEGLGELFLDGLSTENPHGARLSLDGQGRLSWPVLFLYPEYAQSDFISAFHEDSRFIDHLMVMFGETPSWDLEQKYCPDNLEVYFEDEDRAELYRVPAKSTLLQVLQHQRYFVKALTPAFLVCVGSSPFCKNFLRGRKVYQIR [N217K], the “effect of a mutation on the interaction” value is “with no effect”.

On to MEQPGQDPTSDDVMDSFLEKFQSQPYRGGFHEDQWEKEFEKVPLFMSRAPSEIDPRENPDLACLQSMIFDEERSPEEQAKTYKDEGNDYFKEKDYKKAVISYTEGLKKKCADPDLNAVLYTNRAAAQYYLGNFRSALNDVTAARKLKPCHLKAIIRGALCHLELKHFAEAVNWCDEGLQIDAKEKKLLEMRAKADKLKRIEQRDVRKANLKEKKERNQNEALLQAIKARNIRLSEAACEDEDSASEGLGELFLDGLSTENPHGARLSLDGQGRLSWPVLFLYPEYAQSDFISAFHEDSRFIDHLMVMFGETPSWDLEQKYCPDNLEVYFEDEDRAELYRVPAKSTLLQVLQHQRYFVKALTPAFLVCVGSSPFCKNFLRGRKVYQIR [I67M], for which the “effect of a mutation on the interaction” value is recorded as “decreasing interaction strength”.

These data come from IntAct's records for PubMed 18320024.
